Measured values: US20260167699A1 (Chugai, published 2026)

T1: FcγRIIa(R) extracellular domain, C-terminal His tag (human, UniProt P12318 34-217)
T1 construct: extracellular domain; also called 2aR
T1 sequence: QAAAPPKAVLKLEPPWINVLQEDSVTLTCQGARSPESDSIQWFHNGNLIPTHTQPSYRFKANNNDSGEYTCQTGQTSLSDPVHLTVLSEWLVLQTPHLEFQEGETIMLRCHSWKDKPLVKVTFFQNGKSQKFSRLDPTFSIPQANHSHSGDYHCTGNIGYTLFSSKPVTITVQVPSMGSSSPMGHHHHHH

T2: FcγRIIb extracellular domain, C-terminal His tag (human, UniProt P31994 43-217)
T2 construct: extracellular domain; also called 2b
T2 sequence: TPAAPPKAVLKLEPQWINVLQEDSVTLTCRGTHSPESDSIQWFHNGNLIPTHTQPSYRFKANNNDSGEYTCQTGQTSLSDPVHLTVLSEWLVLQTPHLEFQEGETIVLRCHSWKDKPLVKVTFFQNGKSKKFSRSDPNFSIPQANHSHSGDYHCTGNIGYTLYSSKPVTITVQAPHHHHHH

T3: FcγRIIa(H) extracellular domain, C-terminal His tag (human, UniProt P12318 34-217)
T3 construct: extracellular domain; also called 2aH
T3 sequence: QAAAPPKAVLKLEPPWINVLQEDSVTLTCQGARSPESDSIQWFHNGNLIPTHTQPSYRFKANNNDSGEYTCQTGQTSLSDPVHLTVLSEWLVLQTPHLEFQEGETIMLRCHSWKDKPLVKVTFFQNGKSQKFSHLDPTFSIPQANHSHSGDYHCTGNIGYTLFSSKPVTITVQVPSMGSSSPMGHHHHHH


Columns and labels:
Experiment in all cases: SPR; He Ab vs HeCon Ab (GpH7-A5/GpH7-B3/GpL16-k0)=100;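 further: surface plasmon resonance at 25 °C with the test antibody captured on a sensor chip via antigenic peptide, protein L or protein A/G and FcγR flowed over as analyte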
[1] = target: T4, FcγRIIIa extracellular domain, C-terminal His tag (human, UniProt P08637 17-208)
T4 construct: extracellular domain; also called 3a
T4 sequence (P08637 other isoform, or with tags, fused parts or gaps): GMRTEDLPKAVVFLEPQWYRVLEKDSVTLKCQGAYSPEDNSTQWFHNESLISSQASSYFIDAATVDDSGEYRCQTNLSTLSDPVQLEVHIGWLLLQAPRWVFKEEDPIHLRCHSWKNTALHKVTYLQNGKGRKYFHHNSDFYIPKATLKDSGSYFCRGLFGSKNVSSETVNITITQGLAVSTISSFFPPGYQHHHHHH

[2] = target: T1, FcγRIIa(R) extracellular domain, …
[3] = target: T2, FcγRIIb extracellular domain, …
[4] = target: T5, FcγRIa extracellular domain, C-terminal His tag (human, UniProt P12314 16-292)
T5 construct: extracellular domain; also called 1a
T5 sequence (P12314 other isoform, or with tags, fused parts or gaps): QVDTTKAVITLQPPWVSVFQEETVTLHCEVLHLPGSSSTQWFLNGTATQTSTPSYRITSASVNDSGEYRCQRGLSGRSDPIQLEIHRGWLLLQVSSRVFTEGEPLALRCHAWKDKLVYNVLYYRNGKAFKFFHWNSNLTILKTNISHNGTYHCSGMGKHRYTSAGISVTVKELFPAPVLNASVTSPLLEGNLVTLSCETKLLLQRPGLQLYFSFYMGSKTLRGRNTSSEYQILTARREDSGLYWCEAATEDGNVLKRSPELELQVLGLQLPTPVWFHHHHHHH

[5] = target: T3, FcγRIIa(H) extracellular domain, …

| He/Con 3a [1] | He/Con 2aR [2] | He/Con 2b [3] | He/Con 1a [4] | He/Con 2aH [5] | Binder |
| --- | --- | --- | --- | --- | --- |
| 85.6% | 68.7% | 68.1% | 98.5% | 62.6% | GpH7-A5/GpH7-B3 variant Q295_09D/GpL16-k0 (antibody, human IgG1, kappa, heterodimerized IgG1, one H chain mutated; also called He Ab; copies: 1 + 1 + 2) heavy 1: not shown heavy 2: not shown light: DIVMTQSPLSLPVTPGEPASISCQASESLVHSNRNTYLHWYLQKPGQSPQLLIYKVSNRFSGVPDRFSGSGSGTDFTLKISRVEAEDVGVYYCSQNTHVPPTFGQGTKVEIERTVAAPSVFIFPPSDEQLKSGTASVVCLLNNFYPREAKVQWKVDNALQSGNSQESVTEQDSKDSTYSLSSTLTLSKADYEKHKVYACEVTHQGLSSPVTKSFNRGEC |
| 74.9% | 94.5% | 81.2% | 100% | 71.4% | GpH7-A5/GpH7-B3 variant S298_01G/GpL16-k0 (antibody, human IgG1, kappa, heterodimerized IgG1, one H chain mutated; also called He Ab; copies: 1 + 1 + 2) heavy 1: not shown heavy 2: not shown light: DIVMTQSPLSLPVTPGEPASISCQASESLVHSNRNTYLHWYLQKPGQSPQLLIYKVSNRFSGVPDRFSGSGSGTDFTLKISRVEAEDVGVYYCSQNTHVPPTFGQGTKVEIERTVAAPSVFIFPPSDEQLKSGTASVVCLLNNFYPREAKVQWKVDNALQSGNSQESVTEQDSKDSTYSLSSTLTLSKADYEKHKVYACEVTHQGLSSPVTKSFNRGEC |
| 87.2% | 104% | 103% | 111% | 95.8% | GpH7-A5/GpH7-B3 variant S298_06M/GpL16-k0 (antibody, human IgG1, kappa, heterodimerized IgG1, one H chain mutated; also called He Ab; copies: 1 + 1 + 2) heavy 1: not shown heavy 2: not shown light: DIVMTQSPLSLPVTPGEPASISCQASESLVHSNRNTYLHWYLQKPGQSPQLLIYKVSNRFSGVPDRFSGSGSGTDFTLKISRVEAEDVGVYYCSQNTHVPPTFGQGTKVEIERTVAAPSVFIFPPSDEQLKSGTASVVCLLNNFYPREAKVQWKVDNALQSGNSQESVTEQDSKDSTYSLSSTLTLSKADYEKHKVYACEVTHQGLSSPVTKSFNRGEC |
| 90.4% | 73% | 63.8% | 100% | 79.5% | GpH7-A5/GpH7-B3 variant Q295_13S/GpL16-k0 (antibody, human IgG1, kappa, heterodimerized IgG1, one H chain mutated; also called He Ab; copies: 1 + 1 + 2) heavy 1: not shown heavy 2: not shown light: DIVMTQSPLSLPVTPGEPASISCQASESLVHSNRNTYLHWYLQKPGQSPQLLIYKVSNRFSGVPDRFSGSGSGTDFTLKISRVEAEDVGVYYCSQNTHVPPTFGQGTKVEIERTVAAPSVFIFPPSDEQLKSGTASVVCLLNNFYPREAKVQWKVDNALQSGNSQESVTEQDSKDSTYSLSSTLTLSKADYEKHKVYACEVTHQGLSSPVTKSFNRGEC |
| 103% | 82.5% | 65.4% | 106% | 83.2% | GpH7-A5/GpH7-B3 variant S298_03V/GpL16-k0 (antibody, human IgG1, kappa, heterodimerized IgG1, one H chain mutated; also called He Ab; copies: 1 + 1 + 2) heavy 1: not shown heavy 2: not shown light: DIVMTQSPLSLPVTPGEPASISCQASESLVHSNRNTYLHWYLQKPGQSPQLLIYKVSNRFSGVPDRFSGSGSGTDFTLKISRVEAEDVGVYYCSQNTHVPPTFGQGTKVEIERTVAAPSVFIFPPSDEQLKSGTASVVCLLNNFYPREAKVQWKVDNALQSGNSQESVTEQDSKDSTYSLSSTLTLSKADYEKHKVYACEVTHQGLSSPVTKSFNRGEC |
| 85.7% | 81.7% | 72.8% | 101% | 87.8% | GpH7-A5/GpH7-B3 variant Q295_18N/GpL16-k0 (antibody, human IgG1, kappa, heterodimerized IgG1, one H chain mutated; also called He Ab; copies: 1 + 1 + 2) heavy 1: not shown heavy 2: not shown light: DIVMTQSPLSLPVTPGEPASISCQASESLVHSNRNTYLHWYLQKPGQSPQLLIYKVSNRFSGVPDRFSGSGSGTDFTLKISRVEAEDVGVYYCSQNTHVPPTFGQGTKVEIERTVAAPSVFIFPPSDEQLKSGTASVVCLLNNFYPREAKVQWKVDNALQSGNSQESVTEQDSKDSTYSLSSTLTLSKADYEKHKVYACEVTHQGLSSPVTKSFNRGEC |
| 77.6% | 80.4% | 66.3% | 106% | 75.5% | GpH7-A5/GpH7-B3 variant S298_04F/GpL16-k0 (antibody, human IgG1, kappa, heterodimerized IgG1, one H chain mutated; also called He Ab; copies: 1 + 1 + 2) heavy 1: not shown heavy 2: not shown light: DIVMTQSPLSLPVTPGEPASISCQASESLVHSNRNTYLHWYLQKPGQSPQLLIYKVSNRFSGVPDRFSGSGSGTDFTLKISRVEAEDVGVYYCSQNTHVPPTFGQGTKVEIERTVAAPSVFIFPPSDEQLKSGTASVVCLLNNFYPREAKVQWKVDNALQSGNSQESVTEQDSKDSTYSLSSTLTLSKADYEKHKVYACEVTHQGLSSPVTKSFNRGEC |
| 105% | 101% | 106% | 101% | 112% | GpH7-A5/GpH7-B3 variant Q295_10E/GpL16-k0 (antibody, human IgG1, kappa, heterodimerized IgG1, one H chain mutated; also called He Ab; copies: 1 + 1 + 2) heavy 1: not shown heavy 2: not shown light: DIVMTQSPLSLPVTPGEPASISCQASESLVHSNRNTYLHWYLQKPGQSPQLLIYKVSNRFSGVPDRFSGSGSGTDFTLKISRVEAEDVGVYYCSQNTHVPPTFGQGTKVEIERTVAAPSVFIFPPSDEQLKSGTASVVCLLNNFYPREAKVQWKVDNALQSGNSQESVTEQDSKDSTYSLSSTLTLSKADYEKHKVYACEVTHQGLSSPVTKSFNRGEC |
| 81.8% | 88.1% | 79% | 99.7% | 102% | GpH7-A5/GpH7-B3 variant Q295_11K/GpL16-k0 (antibody, human IgG1, kappa, heterodimerized IgG1, one H chain mutated; also called He Ab; copies: 1 + 1 + 2) heavy 1: not shown heavy 2: not shown light: DIVMTQSPLSLPVTPGEPASISCQASESLVHSNRNTYLHWYLQKPGQSPQLLIYKVSNRFSGVPDRFSGSGSGTDFTLKISRVEAEDVGVYYCSQNTHVPPTFGQGTKVEIERTVAAPSVFIFPPSDEQLKSGTASVVCLLNNFYPREAKVQWKVDNALQSGNSQESVTEQDSKDSTYSLSSTLTLSKADYEKHKVYACEVTHQGLSSPVTKSFNRGEC |
| 80.2% | 80.5% | 70.3% | 101% | 90.1% | GpH7-A5/GpH7-B3 variant Q295_16H/GpL16-k0 (antibody, human IgG1, kappa, heterodimerized IgG1, one H chain mutated; also called He Ab; copies: 1 + 1 + 2) heavy 1: not shown heavy 2: not shown light: DIVMTQSPLSLPVTPGEPASISCQASESLVHSNRNTYLHWYLQKPGQSPQLLIYKVSNRFSGVPDRFSGSGSGTDFTLKISRVEAEDVGVYYCSQNTHVPPTFGQGTKVEIERTVAAPSVFIFPPSDEQLKSGTASVVCLLNNFYPREAKVQWKVDNALQSGNSQESVTEQDSKDSTYSLSSTLTLSKADYEKHKVYACEVTHQGLSSPVTKSFNRGEC |
| 81.5% | 82% | 73.3% | 100% | 89.3% | GpH7-A5/GpH7-B3 variant Q295_15Y/GpL16-k0 (antibody, human IgG1, kappa, heterodimerized IgG1, one H chain mutated; also called He Ab; copies: 1 + 1 + 2) heavy 1: not shown heavy 2: not shown light: DIVMTQSPLSLPVTPGEPASISCQASESLVHSNRNTYLHWYLQKPGQSPQLLIYKVSNRFSGVPDRFSGSGSGTDFTLKISRVEAEDVGVYYCSQNTHVPPTFGQGTKVEIERTVAAPSVFIFPPSDEQLKSGTASVVCLLNNFYPREAKVQWKVDNALQSGNSQESVTEQDSKDSTYSLSSTLTLSKADYEKHKVYACEVTHQGLSSPVTKSFNRGEC |
| 151% | 87.2% | 74.4% | 103% | 74.3% | GpH7-A5/GpH7-B3 variant S298_02A/GpL16-k0 (antibody, human IgG1, kappa, heterodimerized IgG1, one H chain mutated; also called He Ab; copies: 1 + 1 + 2) heavy 1: not shown heavy 2: not shown light: DIVMTQSPLSLPVTPGEPASISCQASESLVHSNRNTYLHWYLQKPGQSPQLLIYKVSNRFSGVPDRFSGSGSGTDFTLKISRVEAEDVGVYYCSQNTHVPPTFGQGTKVEIERTVAAPSVFIFPPSDEQLKSGTASVVCLLNNFYPREAKVQWKVDNALQSGNSQESVTEQDSKDSTYSLSSTLTLSKADYEKHKVYACEVTHQGLSSPVTKSFNRGEC |
| 120% | 79.2% | 74.9% | 101% | 86.2% | GpH7-A5/GpH7-B3 variant Q295_14T/GpL16-k0 (antibody, human IgG1, kappa, heterodimerized IgG1, one H chain mutated; also called He Ab; copies: 1 + 1 + 2) heavy 1: not shown heavy 2: not shown light: DIVMTQSPLSLPVTPGEPASISCQASESLVHSNRNTYLHWYLQKPGQSPQLLIYKVSNRFSGVPDRFSGSGSGTDFTLKISRVEAEDVGVYYCSQNTHVPPTFGQGTKVEIERTVAAPSVFIFPPSDEQLKSGTASVVCLLNNFYPREAKVQWKVDNALQSGNSQESVTEQDSKDSTYSLSSTLTLSKADYEKHKVYACEVTHQGLSSPVTKSFNRGEC |
